Laboratory results published in patent US20040088744A1.

Target: fusion protein consisting of apoB17 and the receptor binding domain of apoB ("B17(B69-79)")
Assay: cell-based or functional assay

## ligand binding domain of the LDL receptor ("soluble LDL receptor") (from UniProt P01130 22-354)
  secretion of the fusion protein: 10 fold
